Values of other authors as cited in publication PMC8162889.

Target: EphA2 ECD (Homo sapiens) (UniProt P29317)
Assay: MST

Chain of UniProt P29317 (P29317 24-537): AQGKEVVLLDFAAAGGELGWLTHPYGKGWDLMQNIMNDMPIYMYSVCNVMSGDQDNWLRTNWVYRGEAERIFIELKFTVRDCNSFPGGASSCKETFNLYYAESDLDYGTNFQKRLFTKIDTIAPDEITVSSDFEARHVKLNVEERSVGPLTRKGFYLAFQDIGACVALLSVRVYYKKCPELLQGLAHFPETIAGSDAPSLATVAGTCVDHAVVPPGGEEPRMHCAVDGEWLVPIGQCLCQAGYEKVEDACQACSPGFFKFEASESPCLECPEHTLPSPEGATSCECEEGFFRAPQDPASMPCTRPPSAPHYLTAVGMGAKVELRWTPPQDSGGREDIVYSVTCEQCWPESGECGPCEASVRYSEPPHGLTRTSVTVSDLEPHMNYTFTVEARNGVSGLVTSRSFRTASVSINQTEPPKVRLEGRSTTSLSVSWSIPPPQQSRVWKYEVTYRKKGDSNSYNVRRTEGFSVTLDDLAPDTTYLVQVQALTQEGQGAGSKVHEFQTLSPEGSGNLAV

## Progranulin (from UniProt P28799)
  Kd: 1.2 nM
